From the RNAGym collection of RNA variant scans (doi:10.1073/pnas.2313332121)
This sample holds only a part of the variants without activity.

B1: TPR 5TU (parent)
chain: GGAUCUUCUCGAUCUAACAAAAAAGACAAAUCUGCCACAAAGCUUGAGAGCAUCUUCGGAUGCAGAGGCGGCAGCCUUCGGUGGCGCGAUAGCGCCAACGUUCUCAACUAUGACACGCAAAACGCGUGCUCCGUUGAAUGGAGUUUAUCAUG

Variants of: B1
Test: polymerase ribozyme fitness, log enrichment relative to wild type (log ratio); higher = more active; in vitro selection for triplet polymerase activity
How it was run: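 A heterodimeric triplet polymerase ribozyme had each of its subunits mutagenized by PCR into a library, which was transcribed. One round of in vitro selection, done in triplicate, annealed each library with a biotinylated primer, its partner subunit and triplets, then incubated it frozen at −7 °C before gel excision of extended constructs, streptavidin-bead capture and RT-PCR. Fitness is the logarithm of genotype enrichment relative to wild-type enrichment, based on Illumina sequencing of inputs and outputs and inverse-variance-weighted replicate averages. A base-2 logarithm is used, and genotypes were kept only with ≥10 input reads and ≥1 read per output.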

Variant	polymerase ribozyme fitness (log ratio)
U4A C18U C79G A91U A142C U148C	≤ -4.2
C10U A17G A52C C75U C99U U102C U127A U135A	≤ -4.2
U9A A39U G48A G84U C99A G117U	≤ -4.2
C10G A91G A97G C108A C118G	≤ -4.2
C57U G88U G100A A107C	≤ -4.2
G126A C132U A142C	≤ -4.2
U33G G34U	≤ -4.2
A17U C27G G58C C96A C116U	≤ -4.2
A37U G83C A91C A98G G124U	≤ -4.2
A52G U78C	-0.764
G88C C105G G128C A142C	≤ -4.2
A20G U31G G86A	-1.52
G88U C96U G124C G136U	≤ -4.2
A17U A20U G50C	≤ -4.2
A20G U102G A107U C116U A142U	≤ -4.2
U56A A97U	-1.47
C85U C116G	-0.942
U4C C57A C95A C96U G141A	-3.87
A23C A24U C57U G58A U61A C93G C103U C118U	≤ -4.2
C85A C95A C125U	-1.39
A49C C79U C85U C132A U134A	≤ -4.2

Variant	polymerase ribozyme fitness (log ratio)
A26G C32U U33G A49U A91U	≤ -4.2
C5A C18G A40U	-0.118
A21G U33G A52C A64C C75G C93G U151G	≤ -4.2
A30G A47U G50C G80C C96U C103U	≤ -4.2
G42C U82G U104A C116U A137G G152A	≤ -4.2
C38U G92U C95G A106U	≤ -4.2
U55A G92U	-1.03
C32U G81U G84A G94C	-3.46
G126C	1.28
G92A A120G A121C U148C	-4.16
A41G U104G C125G	-1.21
A23U U55A G128U	≤ -4.2
A17U U31G G50C U78G U90G C96G	≤ -4.2
A12U A37G C69G A122C G126A A150G	≤ -4.2
G65U G94A	≤ -4.2
C96G A122U A142U	-1.45
A24U G74C	-4.19
A37G G117U	-2.18
U6G A30C C43G A52C C54U U77A C85G A119G U148G	≤ -4.2
C75U U78C G84A	-1.65
A23G G62A A73U C76G G88A C105U A106G	≤ -4.2

Variant	polymerase ribozyme fitness (log ratio)
A22C G46C G83C	-3.01
U4C C10U A20C A29U A52C A138C G140U	≤ -4.2
C38U C95U	-0.731
U53A G58A	-0.0533
C87U A98G A106G	-1.08
A12U A110G	-3.35
C116U	0.103
A3U G80U	-0.722
A20G C35G A49C A73G C87G	≤ -4.2
A3U C5A U15C A19G C57G C118G G136A G141C A142C	≤ -4.2
A12C C27A C36U C72G C118A	≤ -4.2
A37G A52C A97C	-3.67
U55G G83A C103U U135A	-2.23
A20U G50A G86U C96G	≤ -4.2
A12U C85G C123U U127A	≤ -4.2
A91G C96U A106G	-2.5
C5G C18A A23G C54G G67A C93G C99G	≤ -4.2
U6A A30C G58C A60U C76G A106U C149G	≤ -4.2
C69A G84A U104G C125U G126A A142C	≤ -4.2
A41C G58C U82G A106G A137G	-2.57
C43A G88A	≤ -4.2

Variant	polymerase ribozyme fitness (log ratio)
G94A G152C	-3.08
A21C G50A C96U C125G	-1.98
A37G U61A G141C U148C	≤ -4.2
A40G A52G A91U U102C A138U G143U	≤ -4.2
A91G G143C	-3.43
U9G C10G A17G A22G A23U G50A A73G	≤ -4.2
G25C G46C C85G C87U G124C C125U U146C	≤ -4.2
C10U C51G U53A U90G	≤ -4.2
A17C G50A G84U G143C U144G	≤ -4.2
C36U C96G	-2.56
U9A U15A G48C C51G G84A	≤ -4.2
C27G U56A	-3.69
U45A G46C U56A G84U G88U U90G C99A	≤ -4.2
C32G G83A C85G C108G G124A U135G	≤ -4.2
C35A G74A U144G C149G	≤ -4.2
G50A G84U G141U	-3.31
G11A A39U A97C	-3.26
U53A C57U A97G	-1.24
U6C A20C A28C A37U G42U G71A C85U C99G A106G C131G	≤ -4.2
A20C A24G	-4.02
C87U A142G	-0.623
